Target: the molecule itself
Experiment: X-ray crystal structure, homotetramer
Method: Molecular replacement was carried out using the program MOLREP from the CCCP4i-program suite with the coordinates of bovine AQP1 (PDB entry 1J4N) (SEQ ID NO: 38) as the model. Using two copies of the model in the molecular replacement search, a clear solution with a correlation coefficient and R-factor of 34.3% and 53.1% respectively was found. The crystal packing was checked using the program O (30) and there were no overlaps between molecules. Automated model building was carried out using ARP/WARP (31) and the resulting model was docked to the correct sequence using GUISIDE2. The calculated electron density map at this stage was already of very good quality. Water molecules were picked using ARP/WARP. The model was subjected to multiple rounds of refinement in REFMAC5 (29), NCSREF (29) and CNS (32) with manual rebuilding in O between each round. During refinement, NCS restraints between the two molecules in the asymmetric unit (molecule A and B) were used. […] The R-factor and Rfree are 18.1% and 20.8% respectively. The quality of the structure was checked in PROCHECK (33).

B1: SoPIP2;1, plasma membrane aquaporin of spinach (other)
chain: MSKEVSEEAQAHQHGKDYVDPPPAPFFDLGELKLWSFWRAAIAEFIATLLFLYITVATVIGHSKETVVCGSVGLLGIAWAFGGMIFVLVYCTAGISGGHINPAVTFGLFLARKVSLLRALVYMIAQCLGAICGVGLVKAFMKGPYNQFGGGANSVALGYNKGTALGAEIIGTFVLVYTVFSATDPKRSARDSHVPILAPLPIGFAVFMVHLATIPITGTGINPARSFGAAVIFNSNKVWDDQWIFWVGPFIGAAVAAAYHQYVLRAAAIKALGSFRSNPTN
notes: also called PM28A; spinach aquaporin
binding result: binds

From patent US7919587 (HYDROGENE LUND, dated 2011)
